# T1: TRAF2 (mouse, endogenous) (mouse, UniProt P39429 2-501)
# T1 construct: Endogenous protein; also called TNF-receptor associated factor 2
# T1 sequence (looked up): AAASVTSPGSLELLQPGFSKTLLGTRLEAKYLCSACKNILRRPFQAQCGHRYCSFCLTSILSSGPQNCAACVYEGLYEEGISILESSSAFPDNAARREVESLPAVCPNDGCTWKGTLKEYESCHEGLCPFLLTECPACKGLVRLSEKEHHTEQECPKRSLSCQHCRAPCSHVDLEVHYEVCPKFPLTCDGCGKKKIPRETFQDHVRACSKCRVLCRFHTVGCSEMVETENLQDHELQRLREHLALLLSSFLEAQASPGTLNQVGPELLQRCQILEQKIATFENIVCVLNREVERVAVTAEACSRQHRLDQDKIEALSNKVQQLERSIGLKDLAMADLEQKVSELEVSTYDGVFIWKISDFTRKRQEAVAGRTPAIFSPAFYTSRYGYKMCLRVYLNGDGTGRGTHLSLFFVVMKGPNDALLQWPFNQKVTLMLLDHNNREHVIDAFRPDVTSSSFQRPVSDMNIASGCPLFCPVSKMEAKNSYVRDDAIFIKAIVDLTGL
# Target: T1, TRAF2 (mouse, endogenous)
# Experiment: co-immunoprecipitation from ischemic hindlimb muscle of C57BL/6 mice
binder,measurement,value
"TNFR2 (mouse, endogenous in hindlimb muscle of C57BL/6 mice) (receptor, UniProt P25119 23-474, looked up, Endogenous protein immunoprecipitated from muscle tissue; also called tumor necrosis factor receptor 2) VPAQVVLTPYKPEPGYECQISQEYYDRKAQMCCAKCPPGQYVKHFCNKTSDTVCADCEASMYTQVWNQFRTCLSCSSSCTTDQVEIRACTKQQNRVCACEAGRYCALKTHSGSCRQCMRLSKCGPGFGVASSRAPNGNVLCKACAPGTFSDTTSSTDVCRPHRICSILAIPGNASTDAVCAPESPTLSAIPRTLYVSQPEPTRSQPLDQEPGPSQTPSILTSLGSTPIIEQSTKGGISLPIGLIVGVTSLGLLMLGLVNCIILVQRKKKPSCLQRDAKVPHVPDEKSQDAVGLEQQHLLTTAPSSSSSSLESSASAGDRRAPPGGHPQARVMAEAQGFQEARASSRISDSSHGSHGTHVNVTCIVNVCSSSDHSSQCSSQASATVGDPDAKPSASPKDEQVPFSQEECPSQSPCETTETLQSHEKPLPLGVPDMGMKPSQAGWFDQIAVKVA",binding result,binds
